For 72 sequences, protein stability index results are on record in the supplement of paper PMC10567573.

± gives the standard deviation.

The data set is described as follows: protein stability index of a GFP-peptide fusion (GPS, HEK-293T) (PSI 1-6); higher = more stable.
[1] abbreviates: treatment: DMSO, c terminus: a fixed tail appended.
[2] abbreviates: treatment: MLN4924 1 uM, 8 h, c terminus: a fixed tail appended.
The mark [3] stands for this setting: treatment: DMSO, c terminus: native.
Setting [4] is: treatment: MLN4924 1 uM, 8 h, c terminus: native.
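Further: 24-mer peptide tiles fused after GFP, lentivirally expressed, FACS-sorted into six equal bins by GFP/DsRed ratio, decoded by Illumina sequencing, PSI is the read-weighted mean bin number.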

On to ELLQQLDLNNCKNNLEPILEGYIS [KRT71], for which the protein stability index runs as follows: under setting [1], 2.54 ± 0.1; under setting [2], 2.62 ± 0.36.

As to VSSVTQVEVDENAYRCGSGMQMAE [NET1], the protein stability index is, setting by setting: under setting [1], 4.2 ± 0.3; under setting [2], 4.42 ± 0.11. In the same order, the values of SRSESPPPLSDPKQAKVVARRESG [BRD3] are 5.5 ± 0.21 and 5.24 ± 0.17. In the same order, the values of KWRKVGRSLQRGCRALRDPALDSL [TRADD] are 2.19 ± 0.16 and 2.54 ± 0.13. With ANDYKDTLGKGSSLSAPSKKTSR [KRT71], the protein stability index under setting [3] is 5.26 ± 0.32 and the protein stability index under setting [4] was determined as 5.12 ± 0.47. The sequence ERPMYGRDSAYQSITHYRPVSASR [EMD] displayed a protein stability index under setting [1] of 3.81 ± 0.26 and a protein stability index under setting [2] of 3.76 ± 0.28. In the same order, the values of RLALRQRLKCRSFKWYLENVYPEM [GALNT9] are 1.95 ± 0.22 and 2.35 ± 0.18. With LNRPGPAPLSSRKHVLYVEHRHLN [TCF25], the protein stability index is, setting by setting: under setting [1], 3.14 ± 0.28; under setting [2], 2.8 ± 0.15.

In the case of RFNLILADTNSDRLFTVNDVKVGG [DCAF4], the protein stability index is 2.44 ± 0.15 under setting [1] and 2.31 ± 0.4 under setting [2]. Regarding TPEDSDPDHFDTAILFTRQDLCGV [ADAMTS4], the protein stability index is, setting by setting: under setting [1], 4.15 ± 0.092; under setting [2], 4.18 ± 0.17. For IETYGPHVPELEMLGRLGYLNHVR [MNAT1], the protein stability index reads like this: under setting [1], 2.4 ± 0.1; under setting [2], 2.62 ± 0.19.

LHEVLTEVVPIHGRGNFPTLEITL [TENT5C] gave a protein stability index under setting [1] of 2.73 ± 0.56 and a protein stability index under setting [2] of 2.53 ± 0.53. As to SSCFFIESCGAQVPVEGSRRETSI, the protein stability index worked out at 3 ± 0.38 under setting [1] and 2.79 ± 0.033 under setting [2]. In the same order, the values of FHVDSAAEYYRLHLEGYHGTAGDS [TNXB] are 2.81 ± 0.27 and 3.17 ± 0.31.

Regarding TQTSEECNGILTEKMEEEEQTCDP [ZNF396], the protein stability index reads like this: under setting [1], 5.5 ± 0.22; under setting [2], 5.71 ± 0.17. For VCTKYNLRITSGVVVCQCGLSIPS [RPAIN], the protein stability index is, setting by setting: under setting [1], 2.56 ± 0.5; under setting [2], 2.45 ± 0.55.

Take PPKASEQETAKEEDGSVELESQVQ [C18orf25]: the protein stability index by setting is: under setting [1], 5.42 ± 0.17; under setting [2], 5.67 ± 0.081. In the same order, the values of LRMMVENIMNKEAFMNQEITKAFH [RHOBTB1] are 2.28 ± 0.5 and 2.2 ± 0.24. Turning to RKAAKSLIKLGLERFHGVGILGFN [ACSBG2], the protein stability index by setting is: under setting [1], 2.64 ± 0.49; under setting [2], 2.51 ± 0.35.

Regarding SGPRQLLTLYNPTGTALRFRVLCT [MOSPD3], the protein stability index reads like this: under setting [1], 2.15 ± 0.48; under setting [2], 2.16 ± 0.27. In the same order, the values of FDLERENACATKEQKNHTFPRLNR [PLD5] are 4.55 ± 0.37 and 4.75 ± 0.28. In the same order, the values of PDDLLTTLDDTCDLFAPLVQETNK [ATF4] are 5.12 ± 0.23 and 5.14 ± 0.22. Regarding SRQIPAPQGAVLVQREKDLPNYNW [KISS1], the protein stability index under setting [1] was 3.78 ± 0.29 and the protein stability index under setting [2] was determined as 3.79 ± 0.14. In the same order, the values of TGGQTVVNPWIIIGGVATVVCQPN [SEPHS2] are 2.84 ± 0.76 and 2.62 ± 0.7. In the same order, the values of DVVEYLVDRCGASVEAGGSVHFDG [FEM1A] are 2.48 ± 0.32 and 2.46 ± 0.6. In the same order, the values of LGLKDKEGYTSFWNDCISSGLRGG [GOLPH3L] are 2.65 ± 0.59 and 2.83 ± 0.31.

Regarding VENPSTASHSLSPSEHVQGKSPVN [ZNF649], the protein stability index amounted to 5.26 ± 0.17 under setting [1] and 5.21 ± 0.29 under setting [2]. In the same order, the values of FNDPFFIVETVCIVWFSFEFVVRC [KCNA4] are 3.38 ± 0.68 and 3.45 ± 0.98. Take HCMLVSNRVSWWGSTLAMLQRLKE [ZBED1]: the protein stability index was 3.29 ± 0.18 under setting [1] and 3.46 ± 0.37 under setting [2]. Take YSRGYRNRRSSRETREYAPPSRGH [RBMY1A1]: the protein stability index reads like this: under setting [1], 4.38 ± 0.27; under setting [2], 4.76 ± 0.23. Turning to EEEEGTMMKAKGDLEMKEEEEISE [ZBED2], the protein stability index under setting [2] is 5.53 ± 0.53. For the sequence AAVLQYASLVGQKCSERMLLFRN [ATE1], the protein stability index was 2.38 ± 0.043 under setting [3] and 2.27 ± 0.33 under setting [4]. Consider TEEELRRIQTQKEQAKENENGELQ [ZC2HC1C], for which the protein stability index came out at 5.68 ± 0.23 under setting [1] and 5.54 ± 0.14 under setting [2].

As for MCTKMEQPFYHDDSYTATGYGRAP [JUNB], the protein stability index worked out at 3.19 ± 0.19 under setting [1] and 3.25 ± 0.24 under setting [2]. On to PSSQKALLLELKGLQEEPVEGFRV [CDC34], for which the protein stability index by setting is: under setting [1], 3.68 ± 0.14; under setting [2], 3.47 ± 0.14. In the same order, the values of DLETHRLPCTSRCPRPCRESAFKL [SCNN1D] are 2.41 ± 0.21 and 2.44 ± 0.063. In the same order, the values of FSRAPVSALPLAPNHLGGGAVVLG [STX5] are 2.81 ± 0.11 and 2.98 ± 0.17. In the same order, the values of PSQRLVQNCLWTLRNLSDAATKQE [CTNNB1] are 3.31 ± 0.18 and 3.19 ± 0.25. For the sequence RRLFGPVDSEQLRRDCDALMAGCI [CDKN1A], the protein stability index reads like this: under setting [1], 2.75 ± 0.26; under setting [2], 2.74 ± 0.34. In the same order, the values of QEVLSLRRENSTLDVECHEKEKHV [SASS6] are 5.2 ± 0.38 and 5.52 ± 0.4. In the case of ARMLSSNERDSSEPGNFIPLFTPQ [CDC25A], the protein stability index worked out at 3.85 ± 0.25 under setting [1] and 3.96 ± 0.4 under setting [2]. In the same order, the values of FHPDPRQKALYRRLATVHMSRMIN [CLPTM1] are 2.58 ± 0.55 and 2.39 ± 0.25. VLLKKDVDAAYANKVELQAKVESM [KRT71] had a protein stability index under setting [1] of 3.63 ± 0.36 and a protein stability index under setting [2] of 3.65 ± 0.36.

In the case of LSDFGLCTGLKKAHRTEFYRNLTH [STK38L], the protein stability index reads like this: under setting [1], 2.41 ± 0.6; under setting [2], 2.2 ± 0.27. In the same order, the values of LIAEVMGEDIPEKIKDEVHPEVKC [C8orf76] are 4.51 ± 0.58 and 4.31 ± 0.14.

Consider PSPSTLEPHPRPLLQRELMVPGTR [TNXB], for which the protein stability index runs as follows: under setting [1], 4.4 ± 0.24; under setting [2], 4.36 ± 0.59. In the same order, the values of IGLDNGTISEFILSEDYNKMTPVK [WDFY2] are 2.98 ± 0.47 and 3.16 ± 0.54. In the same order, the values of ELNFISVFWPQLPNGLEAAYEFAD [MMP1] are 2.45 ± 0.47 and 2.15 ± 0.59. Consider PFDLEQQWQDLMSIMEMQAMEVNT [NFE2L1], for which the protein stability index is, setting by setting: under setting [1], 3.87 ± 0.17; under setting [2], 4.03 ± 0.28.

For QRTIMKPLEYQFKSQIMSLSHSPQ [TLE6], the protein stability index is, setting by setting: under setting [1], 2.89 ± 0.26; under setting [2], 3.2 ± 0.23. On to HSKLLVSGFWGVARHFNYVGDLMG [DHCR7], for which the protein stability index reads like this: under setting [1], 2.34 ± 0.53; under setting [2], 2.33 ± 0.44.

With MQVDKKRVYLATDDPSLLKEAKTK [FUT8], the protein stability index worked out at 4.06 ± 0.21 under setting [1] and 3.92 ± 0.32 under setting [2].

As to PPQGGCGGGGCDRYEPLPPSLPAA [KCNA3], the protein stability index by setting is: under setting [1], 4.53 ± 0.16; under setting [2], 4.7 ± 0.23. Turning to VVPARLKRASAPTFDNDYSLSELL [RIPK4], the protein stability index stood at 2.69 ± 0.17 under setting [1] and 2.8 ± 0.42 under setting [2]. As to MKFAQVFGCFFYVYYIFERLCAPL [SOAT1], the protein stability index by setting is: under setting [1], 2.89 ± 0.54; under setting [2], 2.87 ± 0.51. As to ARERAKLQIELGKCKAEHDQLLLN [LMNB1], the protein stability index under setting [1] is 3.47 ± 0.098 and the protein stability index under setting [2] was found to be 3.14 ± 0.1. In the same order, the values of QEQEIDGKSLLLMTRNDVLTGLQL [SAMD13] are 3.23 ± 0.23 and 3.36 ± 0.24. Regarding ERTWPPPAMSPYWRTWMTITQSWQ [C22orf15], the protein stability index stood at 2.31 ± 0.58 under setting [1] and 1.94 ± 0.32 under setting [2]. As to SRWVRDPRYREDPCKQCKKKYVKG [FBXO34], the protein stability index under setting [1] was 3.59 ± 0.44 and the protein stability index under setting [2] was 3.92 ± 0.14. IVIFCLETLPELKDDKDFTGTVHR [KCNA1] yielded a protein stability index under setting [1] of 2.42 ± 0.46 and a protein stability index under setting [2] of 2.16 ± 0.27. In the same order, the values of LSLSNATVLTRSLFLGRILSLTSS [FANCE] are 3.06 ± 0.64 and 2.88 ± 0.34.

As to GEEQAQLLHVSSPNLASDSDLSRR [KCNA1], the protein stability index reads like this: under setting [1], 5.36 ± 0.16; under setting [2], 5.33 ± 0.11. In the same order, the values of PPSYGGSSRYDDYSSSRDGYGGSR [RBMX] are 4.612 ± 0.036 and 4.66 ± 0.33. In the same order, the values of HQRIHTGEKPYECVQCGKSYSQSS [ZNF24] are 3.79 ± 0.4 and 3.92 ± 0.28.

For LTRFLSRVIKCDPDCLRACQEQIE [CCND1], the protein stability index by setting is: under setting [1], 2.34 ± 0.16; under setting [2], 2.56 ± 0.07. In the same order, the values of GELRRRPGDMKTKMELLILETQAQ [CPOX] are 3.34 ± 0.18 and 3.43 ± 0.26.

Take EDYGHWLLCLRAVTHREGAPPLPG [PLEKHN1]: the protein stability index by setting is: under setting [1], 2 ± 0.14; under setting [2], 2.16 ± 0.26. In the same order, the values of IYTNRYETNEEDKTLQEIYRKYRK [FBXO39] are 2.96 ± 0.32 and 3.58 ± 0.61.

As to LSESETGPMEEVERQVLPDPEVLE [PBXIP1], the protein stability index by setting is: under setting [1], 5.6 ± 0.31; under setting [2], 5.61 ± 0.16.

As for SYSAGDSGDAAAQPAFTGIKGKEG [EPB41L3], the protein stability index was determined as 5.37 ± 0.15 under setting [1] and 5.3 ± 0.25 under setting [2]. In the same order, the values of YRPLKQELQGLDYCKPTRLDLLLD [SPSB1] are 2.77 ± 0.29 and 2.6 ± 0.32. The sequence DSFDKFEFCEPAFVVGNCLQIASD [PCMTD1] had a protein stability index under setting [1] of 3.31 ± 0.072 and a protein stability index under setting [2] of 3.24 ± 0.22.
